The values that follow come from patent US20230331848A1 (BIOSION, published 2023).

Assay [1] deals with T1, recombinant human PD-1-his protein (Cat#:10377-H08H, Sino biological Inc.) (human, UniProt Q15116 25-167).
T1 construct: Bought protein used as analyte in the Biacore tests; not shown: his tag
The experiment in a line: SPR (Biacore), Example 9.

For assay [2], the target named is T2, cynomolgus PD-1-his protein (Cat#:PD1-05223, Acro biosystems Inc.) (cynomolgus, UniProt B0LAJ3 25-170).
T2 construct: Bought protein used in Biacore and indirect ELISA; also called monkey PD-1; Cyno PD-1
The experiment in a line: SPR (Biacore), Example 9.

Assay [3] has as its target T3, recombinant mouse PD-1-his protein (Cat#:50124-M08H, Sino Biological Inc) (mouse, UniProt Q02242 25-167).
T3 construct: Bought protein used in Biacore and indirect ELISA; not shown: his tag
T3 sequence (looked up): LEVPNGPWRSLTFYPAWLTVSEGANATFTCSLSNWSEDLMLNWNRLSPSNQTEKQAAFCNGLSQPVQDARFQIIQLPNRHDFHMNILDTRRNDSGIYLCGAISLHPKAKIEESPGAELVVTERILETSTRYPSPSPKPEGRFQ
Put plainly: SPR (Biacore), Example 9. Background: In SPR one partner is held on a chip, and binding of the other changes the refractive index at the surface.

For assay [4], the target named is T4, human PD-1 expressed on GS-J2/PD-1 cells (Genscript) (human, UniProt Q15116 25-288).
T4 construct: whole, on cells; also called cell-surface human PD-1
The experiment in a line: cell-based binding FACS on GS-J2/PD-1 cells expressing human PD-1 (MFI); unit from the axis 'Con of mAb, nM.'.

The target of assay [5] is T4, human PD-1 expressed on GS-J2/PD-1 …. The experiment in a line: cell-based or functional assay.
The target is the same in assay [6]. The experiment in a line: flow cytometry on GS-J2/PD-1 cells. As for the experimental part: In specific, the 293F-mouse PD-1 cells and GS-J2/PD-1 cells were respectively harvested from cell culture flasks, washed twice and re-suspended in PBS containing 2% v/v Fetal Bovine Serum (FACS buffer). Then, 2×10⁵ cells per well were incubated in 96 well-plates with 100 μl of the anti-PD1 antibodies or controls at various concentrations for 40 minutes on ice. […] Following an incubation of 40 minutes at 4° C. in dark, cells were washed three times and re-suspended in FACS buffer. Fluorescence was measured using a Becton Dickinson FACS Canto II-HTS equipment and plotted against antibody concentrations. Data was analyzed using GraphPad Prism software and EC₅₀ values were reported.
For the cell-based binding FACS, R-Phycoerythrin AffiniPure Goat Anti-human IgG Fcγ fragment specific (Cat#:109-115-098, Jackson ImmunoResearch) was used for the humanized antibodies, with 1:1000 dilution in FACS buffer, 100 μl/well.
In general terms: In flow cytometry, cells or beads pass a laser one at a time.

Assay [7] has as its target T2, cynomolgus PD-1-his protein …. Put plainly: indirect ELISA on coated cynomolgus PD-1-his. Background: In an ELISA, binding on a coated surface is turned into a signal by an enzyme label.
Assay [8] deals with T5, human PD-1-his protein prepared in-house (human, UniProt Q15116 25-167, biotin-labeled (sites not given)).
T5 construct: also called biotin labeled human PD-1-his
The experiment in a line: capture ELISA, antibody captured, biotin human PD-1-his detected. As for the experimental part:
Briefly, 96-well micro plates were coated with 100 μl 2 μg/ml AffiniPure Goat Anti-Mouse IgG F(ab′)₂ fragment specific (Cat#:115-005-072, Jackson lmmunoResearch) or Goat-anti-human IgG (Cat#:109-005-097, Jackson ImmunoResearch, for the positive control and negative control) in PBS overnight at 4° C. Plates were washed once with wash buffer (PBST, PBS+0.05% Tween-20) and then blocked with 200 μl/well blocking buffer (5% w/v non-fatty milk in PBST) for 2 hours at 37° C. […] After a final wash, plates were incubated with 100 μl/well TMB (Cat#:TMB-S-002, Innoreagents) at room temperature.
For the capture ELISA, 96-well plates were coated with 100 μl 2 μg/ml AffiniPure Goat Anti-Human IgG, Fcγ fragment specific (Cat#:109-005-098, Jackson Immunoresearch) instead of AffiniPure goat-anti-mouse IgG F(ab′)₂ fragment specific.

The target of assay [9] is T6, in house made human PD-1-Fc protein (human, biotin-labeled (sites not given)).
T6 construct: also called biotin-labeled human PD-1-Fc
The experiment in a line: competitive ELISA: biotin human PD-1-Fc + antibody on coated human PD-L1-Fc (competitor). The protocol:
Briefly, 100 μl human PD-L1-Fc protein (prepared in-house with SEQ ID NO: 28) at 2 μg/mL in carbonate/bicarbonate buffer (pH 9.6) was coated on 96-well micro plates overnight at 4° C., Plates were washed with wash buffer (PBS+0.05% w/v Tween-20, PBST), and blocked with 5% w/v non-fatty milk in PBST for 2 hours at 37° C. […] After incubation at 37° C. for 40 minutes, plates were washed using wash buffer. […] Plates were washed again using wash buffer. Finally, TMB was added and the reaction was stopped using 1M H₂SO₄. The absorbance was read on a microplate reader using dual wavelength mode with 450 nm for TMB and 630 nm as the reference wavelength, then the OD (450-630) values were plotted against antibody concentrations. Data was analyzed using Graphpad Prism software and IC₅₀ values were reported.

Assay [10] has as its target T5, human PD-1-his protein prepared in-house. Put plainly: competitive ELISA: biotin human PD-1-his + antibody on coated Pembrolizumab (competitor). The protocol: ELISA plates were washed once with wash buffer (PBST, PBS+0.05% Tween-20) and then blocked with 200 μl/well blocking buffer (5% w/v non-fatty milk in PBST) for 2 hours at 37° C. […] After incubation at 37° C. for 40 minutes, plates were washed using wash buffer, added and incubated with 100 μl/well Peroxidase Streptavidin for 40 minutes at 37° C. Plates were washed again using wash buffer. Finally, TMB was added and the reaction was stopped using 1M H₂SO₄. The absorbance was read on a microplate reader using dual wavelength mode with 450 nm for TMB and 630 nm as the reference wavelength, and the OD (450-630) values were plotted against antibody concentrations. Data was analyzed using Graphpad Prism software and IC₅₀ values were reported.

For assay [11], the target named is T7, human PD-1-his protein (Cat#:PD1-H5221, Acro biosystems Inc.) (human, UniProt Q15116 25-167).
T7 construct: not shown: his tag
The experiment in a line: BLI (Octet RED96), supernatant antibody captured on AHC sensor, human PD-1-his in solution, 1:1 fit. The protocol:
(§1) Briefly, AHC biosensors (anti-human IgG Fe capture, from ForteBio) were presoaked with 10 mM glycine (pH 1.5) for 3 seconds, and then dipped in a well with running buffer (0.5% w/v BSA in PBST) for 3 seconds, the soaking and dipping steps were repeated for three times. […] A new baseline was run for 100 seconds in another well with running buffer. Then the sensors were dipped in a well with serially diluted human PD-1-his protein (Cat#:PD1-H5221, Acro biosystems Inc., starting at 100 nM with a two-fold serial dilution) in running buffer for 120 seconds, and then immersed in a baseline well for […]. Finally, sensors were presoaked with 10 mM glycine (pH 1.5) for 30 seconds, and then were dipped in a well with running buffer for 30 seconds. The association and dissociation curves were fit to a 1:1 Langmuir binding model using ForteBio Data Analysis 8.1 evaluation software.

For assay [12], the target named is T6, in house made human PD-1-Fc protein. The experiment in a line: blocking FACS: biotin human PD-1-Fc + antibody on GS-C2/PD-L1 cells (competitor: cell-surface human PD-L1). The protocol: GS-C2/PDL1 cells were harvested from cell culture flasks at the log phase, washed twice and re-suspended in PBS containing 2% v/v Fetal Bovine Serum (FACS buffer). GS-C2/PD-L1 cells, 0.6×10⁵ cells per welt, were incubated in 96 well-plates with 100 the antibody/PD1-Fc mixture for 40 minutes at 4° C. Cells were washed twice with FACS buffer, added with 100 R-Phycoerythrin Streptavidin (1:500 dilution in FACS buffer, Cat#:016-110-084, Jackson Immunoresearch), and incubated for 40 minutes at 4° C. in dark. Cells were washed twice and re-suspended in FACS buffer. Fluorescence was measured using a Becton Dickinson FACS Canto II-HTS equipment. Data was analyzed using Graphpad Prism software and IC₅₀ values were reported.

Assay [13] concerns the target T1, recombinant human PD-1-his protein …. The experiment in a line: SPR (Biacore), protocol of Example 2.
Assay [14] addresses T3, recombinant mouse PD-1-his protein …. Put plainly: SPR (Biacore), protocol of Example 2.
Assay [15] has as its target T7, human PD-1-his protein (Cat#:PD1-H5221, …). The experiment in a line: BLI (Octet RED96), antibody captured on AHC sensor, human PD-1-his in solution, 1:1 fit. As for the experimental part:
as §1

The target is the same in assay [16]. Put plainly: BLI (Octet RED96), antibody captured on AHC sensor, human PD-1-his in solution, 1:1 fit (second run). The protocol: as §1

B1: humanized antibody huE1A9C8A7-V8-3 (antibody, human IgG4 S228P, kappa, V domains shown)
VH: QVQLVQSGAEVVKPGASVKISCKASGYTFTDYVMHWVRQAPGQSLEWMGVISTYHIPAVYNQKFKGKATMTVDTSTSTVYLELSSLRSEDTAVYYCAREVYGESYYFDVWGQGTTVTVSS
VL: DIVMTQTPLSLPVTPGEPASISCRSSQSIVHSAGNTYLEWYLQKPGQSPQLLIYKVSNRFSGVPDRFSGSGSGTDFTLKISRVEAEDVGVYYCFQGSHVPYTFGGGTKVEIKR
notes: huE1A9C8A7-V8 modified in VH CDR3 (D to E) and VL CDR1 (N to A)
With B1, in [1], the Kd (as a rule, the concentration at which binding is half-saturated) amounted to 0.382 nM; the koff (commonly the rate constant with which the complex falls apart) came to 0.00041 s⁻¹; the kon (usually the rate constant with which the complex forms) was determined as 1.07e+06 M⁻¹ s⁻¹. In addition, in assay [2], the affinity, expressed as Kd, was 0.722 nM; the koff was 0.000332 s⁻¹; the kon stood at 461000 M⁻¹ s⁻¹. Also, in [3], the Kd turned out to be 244 nM, the koff was 0.0167 s⁻¹ and the kon came to 64800 M⁻¹ s⁻¹. Besides, the midpoint of the response in [4], the EC50, lay at 0.451 nM.

B2: humanized antibody huE1A9C8A7-V5 (antibody, human IgG4 S228P, kappa)
heavy: not shown
light: DIVMTQTPLSLPVTPGEPASISCRSSQSIVHSNGNTYLEWYLQKPGQSPQLLIYKVSNRFSGVPDRFSGSGSGTDFTLKISRVEAEDVGVYYCFQGSHVPYTFGGGTKVEIKRTVAAPSVFIFPPSDEQLKSGTASVVCLLNNFYPREAKVQWKVDNALQSGNSQESVTEQDSKDSTYSLSSTLTLSKADYEKHKVYACEVTHQGLSSPVTKSFNRGEC
notes: Human IgG4/kappa
As to B2, the “Cell-based functional assay (EC50, nM)” value in assay [5] amounted to 9.3 nM. Also, the concentration for a half-maximal effect (EC50) (as a rule, the midpoint of the concentration-response curve) came out at 0.66 nM in assay [6], 0.9 nM in assay [7] and 0.21 nM in [8]. The IC50 (as a rule, the concentration at which inhibition is half-maximal) in assay [9] came to 0.35 nM; in assay [10], 0.54 nM; in assay [12], 0.54 nM. The molecule also showed a Kd in assay [11] of 1.01 nM. Also, in [11], the koff worked out at 0.000213 s⁻¹. Besides, in [11], the kon was found to be 211000 M⁻¹ s⁻¹.

B3: humanized antibody huE1A9C8A7-V11 (antibody, human IgG4 S228P, kappa, V domains shown)
VH: QVQLVQSGAEVVKPGASVKISCKASGYTFTDYVMHWVRQAPGQSLEWIGVISTYHIPAVYNQKFKGKATMTRDTSTSTVYLELSSLRSEDTAVYYCAREVYGDSYYFDVWGQGTTVTVSS
VL: DIVMTQTPLSLPVTPGEPASISCRSSQSIVHSNGNTYLEWYLQKPGQSPQLLIYKVSNRFSGVPDRFSGSGSGTDFTLKISRVEAEDVGVYYCFQGSHVPYTFGGGTKVEIKR
notes: Human IgG4/kappa
With B3, in assay [11], binding was put at a Kd of 1.53 nM, the koff is 0.000296 s⁻¹ and the association rate constant (kon) was 194000 M⁻¹ s⁻¹.

B4: Chimeric E1A9C8A7 antibody (antibody, human IgG4 S228P, kappa, V domains shown)
VH: QVQLQQSGAEVVRPGVSVRISCKGSGYTFSDYVMHWMKQSHGESLEWIGVISTYHIPAVYNQKFKGKATMTVDKSSSTVYLELARLTSEDSAIYYCAREVYGDSYYFDVWGAGTTVTVSS
VL: DVLMTQIPLSLPVSLGDQVSISCRSSQSIVHSNGNTYLEWYLQKPGQSPKLLIYKVSNRFSGVPDRFSGSGSGTDFTLKISRVEAEDLGVYYCFQGSHVPYTFGGGTKLEIKR
notes: also called chimeric antibody E1A9C8A7
For B4, the “Cell-based functional assay (EC50, nM)” value in [5] is 7.45 nM. The EC50 in assay [6] worked out at 0.67 nM; in assay [7] it was 0.85 nM; in [8] it was 0.21 nM. The Kd in [13] was 1.11 nM; in assay [14] it was 162 nM; in assay [15], 1.32 nM; in assay [16], 2.18 nM. Further, the koff came to 0.000645 s⁻¹ in assay [13], 0.027 s⁻¹ in assay [14], 0.000316 s⁻¹ in [15] and 0.000597 s⁻¹ in [16]. Also, the kon was 580000 M⁻¹ s⁻¹ in [13], 167000 M⁻¹ s⁻¹ in assay [14], 239000 M⁻¹ s⁻¹ in [15] and 274000 M⁻¹ s⁻¹ in assay [16]. In addition, the IC50 in assay [9] came out at 0.38 nM; in assay [10], 0.61 nM; in assay [12], 0.57 nM.
